Measured values published in paper PMC6594998.

Experiments:
[1] = target: Nme1Cas9 (purified, full length) (N. meningitidis)
[2] = target: Nme1Cas9 (purified, full length) (N. meningitidis); assay: ITC; 100 μM AcrIIC2Nme titrated into 10 μM Nme1Cas9; 20 °C; 300 mM NaCl, 20 mM Tris pH 7.5; One Set of Sites model
[3] = target: AcrIIC2Nme (purified, pET28a-Sumo construct) (not stated (suffix Nme; its cognate Cas9 is from N. meningitidis)); assay: crystal structure; Nme1Cas9 and AcrIIC2Nme mixed 1:10, complex purified by gel filtration; hanging drop, 16 °C; Nme1Cas9 digested during crystallization; 2.6 Å
[4] = target: AcrIIC2Nme (purified, pHAT4 construct with N-terminal 6-His tag) (not stated (suffix Nme; its cognate Cas9 is from N. meningitidis)); assay: crystal structure; AcrIIC2Nme alone; Se-SAD; 2.5 Å

in vitro DNA cleavage by Nme1Cas9; sgRNA and AcrIIC2Nme added simultaneously; excess of AcrIIC2Nme needed to block cleavage [1]	Kd [2]	stoichiometry N [3]	stoichiometry N [4]	Substance
> 10 fold excess	200 nM	2	–	AcrIIC2Nme (purified, pET28a-Sumo construct) (natural protein)
–	–	–	2	AcrIIC2Nme (purified, pHAT4 construct with N-terminal 6-His tag) (natural protein)
